According to patent US20140087995A1 (published 2014):
Numbered stars: 1 amine (or outer) side, 2 acyl side, 3 side chain; on linkers, the order of the positions; unused ones are H or OH. Bridge positions count the residues as written; N and C are the ends. Side chains are listed from the residue outwards. Ends that are not written are not given here. * marks the point of attachment. C20 diacid = O=C(O)CCCCCCCCCCCCCCCCCCC(=O)*; γGlu = O=C(O)[C@H](CCC(=O)[*:2])N[*:1]; AEEA = NCCOCCOCC(=O)O

T1: human calcitonin receptor (human, UniProt P30988 25-474)
T1 sequence (looked up): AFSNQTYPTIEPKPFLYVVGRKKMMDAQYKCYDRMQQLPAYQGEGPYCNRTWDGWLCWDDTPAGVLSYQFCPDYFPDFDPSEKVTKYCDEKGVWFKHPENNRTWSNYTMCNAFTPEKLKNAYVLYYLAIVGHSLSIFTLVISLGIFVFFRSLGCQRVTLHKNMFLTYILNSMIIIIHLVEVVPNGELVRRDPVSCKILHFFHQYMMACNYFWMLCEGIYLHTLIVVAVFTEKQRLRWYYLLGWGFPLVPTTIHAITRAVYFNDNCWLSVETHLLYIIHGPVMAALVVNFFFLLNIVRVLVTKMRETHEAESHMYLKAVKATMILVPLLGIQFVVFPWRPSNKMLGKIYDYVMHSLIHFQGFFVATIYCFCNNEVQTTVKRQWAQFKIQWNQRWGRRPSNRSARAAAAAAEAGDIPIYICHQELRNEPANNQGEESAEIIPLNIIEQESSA

B1: N^ε1-[2-[2-[2-[[(4S)-4-carboxy-4-(19-carboxynonadecanoylamino)butanoyl]amino]ethoxy]ethoxy]acetyl]-[Lys14,Arg17,Pro21,Pro27,Pro31]-h-amylin (peptide)
peptide: K([AEEA-γGlu-C20 diacid])CNTATCATQRLAKFLRHSSPNFGAIPSSTPVGSNTY-NH2
modifications: disulfide 2-7; N-terminus assumed
SMILES: CC[C@H](C)[C@H](NC(=O)[C@H](C)NC(=O)CNC(=O)[C@H](Cc1ccccc1)NC(=O)[C@H](CC(N)=O)NC(=O)[C@@H]1CCCN1C(=O)[C@H](CO)NC(=O)[C@H](CO)NC(=O)[C@H](Cc1c[nH]cn1)NC(=O)[C@H](CCCNC(=N)N)NC(=O)[C@H](CC(C)C)NC(=O)[C@H](Cc1ccccc1)NC(=O)[C@H](CCCCN)NC(=O)[C@H](C)NC(=O)[C@H](CC(C)C)NC(=O)[C@H](CCCNC(=N)N)NC(=O)[C@H](CCC(N)=O)NC(=O)[C@@H](NC(=O)[C@H](C)NC(=O)[C@@H]1CSSC[C@H](NC(=O)[C@@H](N)CCCCNC(=O)COCCOCCNC(=O)CC[C@H](NC(=O)CCCCCCCCCCCCCCCCCCC(=O)O)C(=O)O)C(=O)N[C@@H](CC(N)=O)C(=O)N[C@@H]([C@@H](C)O)C(=O)N[C@@H](C)C(=O)N[C@@H]([C@@H](C)O)C(=O)N1)[C@@H](C)O)C(=O)N1CCC[C@H]1C(=O)N[C@@H](CO)C(=O)N[C@@H](CO)C(=O)N[C@H](C(=O)N1CCC[C@H]1C(=O)N[C@H](C(=O)NCC(=O)N[C@@H](CO)C(=O)N[C@@H](CC(N)=O)C(=O)N[C@H](C(=O)N[C@@H](Cc1ccc(O)cc1)C(N)=O)[C@@H](C)O)C(C)C)[C@@H](C)O
notes: also called compound 74
B2: N^ε1-[2-[2-[2-[[(4S)-4-carboxy-4-(19-carboxynonadecanoylamino)butanoyl]amino]ethoxy]ethoxy]acetyl]-[Thr14,Arg17,Pro21,Pro27,Pro31]-h-amylin (peptide)
peptide: K([AEEA-γGlu-C20 diacid])CNTATCATQRLATFLRHSSPNFGAIPSSTPVGSNTY-NH2
modifications: disulfide 2-7; N-terminus assumed
SMILES: CC[C@H](C)[C@H](NC(=O)[C@H](C)NC(=O)CNC(=O)[C@H](Cc1ccccc1)NC(=O)[C@H](CC(N)=O)NC(=O)[C@@H]1CCCN1C(=O)[C@H](CO)NC(=O)[C@H](CO)NC(=O)[C@H](Cc1c[nH]cn1)NC(=O)[C@H](CCCNC(=N)N)NC(=O)[C@H](CC(C)C)NC(=O)[C@H](Cc1ccccc1)NC(=O)[C@@H](NC(=O)[C@H](C)NC(=O)[C@H](CC(C)C)NC(=O)[C@H](CCCNC(=N)N)NC(=O)[C@H](CCC(N)=O)NC(=O)[C@@H](NC(=O)[C@H](C)NC(=O)[C@@H]1CSSC[C@H](NC(=O)[C@@H](N)CCCCNC(=O)COCCOCCNC(=O)CC[C@H](NC(=O)CCCCCCCCCCCCCCCCCCC(=O)O)C(=O)O)C(=O)N[C@@H](CC(N)=O)C(=O)N[C@@H]([C@@H](C)O)C(=O)N[C@@H](C)C(=O)N[C@@H]([C@@H](C)O)C(=O)N1)[C@@H](C)O)[C@@H](C)O)C(=O)N1CCC[C@H]1C(=O)N[C@@H](CO)C(=O)N[C@@H](CO)C(=O)N[C@H](C(=O)N1CCC[C@H]1C(=O)N[C@H](C(=O)NCC(=O)N[C@@H](CO)C(=O)N[C@@H](CC(N)=O)C(=O)N[C@H](C(=O)N[C@@H](Cc1ccc(O)cc1)C(N)=O)[C@@H](C)O)C(C)C)[C@@H](C)O
notes: also called compound 75
B3: N^ε1-[(4S)-4-carboxy-4-(19-carboxynonadecanoylamino)butanoyl]-[Arg14,Arg17,Pro21,Pro27,Pro31]-h-amylin (peptide)
peptide: K([γGlu-C20 diacid])CNTATCATQRLARFLRHSSPNFGAIPSSTPVGSNTY-NH2
modifications: disulfide 2-7; N-terminus assumed
SMILES: CC[C@H](C)[C@H](NC(=O)[C@H](C)NC(=O)CNC(=O)[C@H](Cc1ccccc1)NC(=O)[C@H](CC(N)=O)NC(=O)[C@@H]1CCCN1C(=O)[C@H](CO)NC(=O)[C@H](CO)NC(=O)[C@H](Cc1c[nH]cn1)NC(=O)[C@H](CCCNC(=N)N)NC(=O)[C@H](CC(C)C)NC(=O)[C@H](Cc1ccccc1)NC(=O)[C@H](CCCNC(=N)N)NC(=O)[C@H](C)NC(=O)[C@H](CC(C)C)NC(=O)[C@H](CCCNC(=N)N)NC(=O)[C@H](CCC(N)=O)NC(=O)[C@@H](NC(=O)[C@H](C)NC(=O)[C@@H]1CSSC[C@H](NC(=O)[C@@H](N)CCCCNC(=O)CC[C@H](NC(=O)CCCCCCCCCCCCCCCCCCC(=O)O)C(=O)O)C(=O)N[C@@H](CC(N)=O)C(=O)N[C@@H]([C@@H](C)O)C(=O)N[C@@H](C)C(=O)N[C@@H]([C@@H](C)O)C(=O)N1)[C@@H](C)O)C(=O)N1CCC[C@H]1C(=O)N[C@@H](CO)C(=O)N[C@@H](CO)C(=O)N[C@H](C(=O)N1CCC[C@H]1C(=O)N[C@H](C(=O)NCC(=O)N[C@@H](CO)C(=O)N[C@@H](CC(N)=O)C(=O)N[C@H](C(=O)N[C@@H](Cc1ccc(O)cc1)C(N)=O)[C@@H](C)O)C(C)C)[C@@H](C)O
notes: also called compound 63
B4: N^ε1-[(4S)-4-carboxy-4-(19-carboxynonadecanoylamino)butanoyl]-[Ala14,Arg17,Pro21,Pro27,His34]-h-amylin (peptide)
peptide: K([γGlu-C20 diacid])CNTATCATQRLAAFLRHSSPNFGAIPSSTNVGHNTY-NH2
modifications: disulfide 2-7; N-terminus assumed
SMILES: CC[C@H](C)[C@H](NC(=O)[C@H](C)NC(=O)CNC(=O)[C@H](Cc1ccccc1)NC(=O)[C@H](CC(N)=O)NC(=O)[C@@H]1CCCN1C(=O)[C@H](CO)NC(=O)[C@H](CO)NC(=O)[C@H](Cc1c[nH]cn1)NC(=O)[C@H](CCCNC(=N)N)NC(=O)[C@H](CC(C)C)NC(=O)[C@H](Cc1ccccc1)NC(=O)[C@H](C)NC(=O)[C@H](C)NC(=O)[C@H](CC(C)C)NC(=O)[C@H](CCCNC(=N)N)NC(=O)[C@H](CCC(N)=O)NC(=O)[C@@H](NC(=O)[C@H](C)NC(=O)[C@@H]1CSSC[C@H](NC(=O)[C@@H](N)CCCCNC(=O)CC[C@H](NC(=O)CCCCCCCCCCCCCCCCCCC(=O)O)C(=O)O)C(=O)N[C@@H](CC(N)=O)C(=O)N[C@@H]([C@@H](C)O)C(=O)N[C@@H](C)C(=O)N[C@@H]([C@@H](C)O)C(=O)N1)[C@@H](C)O)C(=O)N1CCC[C@H]1C(=O)N[C@@H](CO)C(=O)N[C@@H](CO)C(=O)N[C@H](C(=O)N[C@@H](CC(N)=O)C(=O)N[C@H](C(=O)NCC(=O)N[C@@H](Cc1c[nH]cn1)C(=O)N[C@@H](CC(N)=O)C(=O)N[C@H](C(=O)N[C@@H](Cc1ccc(O)cc1)C(N)=O)[C@@H](C)O)C(C)C)[C@@H](C)O
notes: also called compound 93
B5: N^ε1-[2-[2-[2-[[(4S)-4-carboxy-4-(19-carboxynonadecanoylamino)butanoyl]amino]ethoxy]ethoxy]acetyl]-[Ser14,Arg17,Pro21,Pro27,Pro31]-h-amylin (peptide)
peptide: K([AEEA-γGlu-C20 diacid])CNTATCATQRLASFLRHSSPNFGAIPSSTPVGSNTY-NH2
modifications: disulfide 2-7; N-terminus assumed
SMILES: CC[C@H](C)[C@H](NC(=O)[C@H](C)NC(=O)CNC(=O)[C@H](Cc1ccccc1)NC(=O)[C@H](CC(N)=O)NC(=O)[C@@H]1CCCN1C(=O)[C@H](CO)NC(=O)[C@H](CO)NC(=O)[C@H](Cc1c[nH]cn1)NC(=O)[C@H](CCCNC(=N)N)NC(=O)[C@H](CC(C)C)NC(=O)[C@H](Cc1ccccc1)NC(=O)[C@H](CO)NC(=O)[C@H](C)NC(=O)[C@H](CC(C)C)NC(=O)[C@H](CCCNC(=N)N)NC(=O)[C@H](CCC(N)=O)NC(=O)[C@@H](NC(=O)[C@H](C)NC(=O)[C@@H]1CSSC[C@H](NC(=O)[C@@H](N)CCCCNC(=O)COCCOCCNC(=O)CC[C@H](NC(=O)CCCCCCCCCCCCCCCCCCC(=O)O)C(=O)O)C(=O)N[C@@H](CC(N)=O)C(=O)N[C@@H]([C@@H](C)O)C(=O)N[C@@H](C)C(=O)N[C@@H]([C@@H](C)O)C(=O)N1)[C@@H](C)O)C(=O)N1CCC[C@H]1C(=O)N[C@@H](CO)C(=O)N[C@@H](CO)C(=O)N[C@H](C(=O)N1CCC[C@H]1C(=O)N[C@H](C(=O)NCC(=O)N[C@@H](CO)C(=O)N[C@@H](CC(N)=O)C(=O)N[C@H](C(=O)N[C@@H](Cc1ccc(O)cc1)C(N)=O)[C@@H](C)O)C(C)C)[C@@H](C)O
notes: also called compound 73
B6: N^ε1-[(4S)-4-carboxy-4-(19-carboxynonadecanoylamino)butanoyl]-[Arg14,Arg17,Pro21,Pro27,Pro34]-h-amylin (peptide)
peptide: K([γGlu-C20 diacid])CNTATCATQRLARFLRHSSPNFGAIPSSTNVGPNTY-NH2
modifications: disulfide 2-7; N-terminus assumed
SMILES: CC[C@H](C)[C@H](NC(=O)[C@H](C)NC(=O)CNC(=O)[C@H](Cc1ccccc1)NC(=O)[C@H](CC(N)=O)NC(=O)[C@@H]1CCCN1C(=O)[C@H](CO)NC(=O)[C@H](CO)NC(=O)[C@H](Cc1c[nH]cn1)NC(=O)[C@H](CCCNC(=N)N)NC(=O)[C@H](CC(C)C)NC(=O)[C@H](Cc1ccccc1)NC(=O)[C@H](CCCNC(=N)N)NC(=O)[C@H](C)NC(=O)[C@H](CC(C)C)NC(=O)[C@H](CCCNC(=N)N)NC(=O)[C@H](CCC(N)=O)NC(=O)[C@@H](NC(=O)[C@H](C)NC(=O)[C@@H]1CSSC[C@H](NC(=O)[C@@H](N)CCCCNC(=O)CC[C@H](NC(=O)CCCCCCCCCCCCCCCCCCC(=O)O)C(=O)O)C(=O)N[C@@H](CC(N)=O)C(=O)N[C@@H]([C@@H](C)O)C(=O)N[C@@H](C)C(=O)N[C@@H]([C@@H](C)O)C(=O)N1)[C@@H](C)O)C(=O)N1CCC[C@H]1C(=O)N[C@@H](CO)C(=O)N[C@@H](CO)C(=O)N[C@H](C(=O)N[C@@H](CC(N)=O)C(=O)N[C@H](C(=O)NCC(=O)N1CCC[C@H]1C(=O)N[C@@H](CC(N)=O)C(=O)N[C@H](C(=O)N[C@@H](Cc1ccc(O)cc1)C(N)=O)[C@@H](C)O)C(C)C)[C@@H](C)O
notes: also called compound 65

The binders below were run against T1, human calcitonin receptor (assay: cell-based or functional assay).

Binder	hCTR funct. EC50
B1	37.5 nM
B2	9.07 nM
B3	5.13 nM
B4	1.15 nM
B5	0.961 nM
B6	9.33 nM
